Measured values published in paper PMC9869178.

Target: recombinant RIIα subunit of PKA, fluorescein 5-maleimide-labelled (UniProt P13861)
Assay: other fluorescence titration

recombinant RIIα subunit of PKA, fluorescein 5-maleimide-labelled, sequence (P13861 2-404): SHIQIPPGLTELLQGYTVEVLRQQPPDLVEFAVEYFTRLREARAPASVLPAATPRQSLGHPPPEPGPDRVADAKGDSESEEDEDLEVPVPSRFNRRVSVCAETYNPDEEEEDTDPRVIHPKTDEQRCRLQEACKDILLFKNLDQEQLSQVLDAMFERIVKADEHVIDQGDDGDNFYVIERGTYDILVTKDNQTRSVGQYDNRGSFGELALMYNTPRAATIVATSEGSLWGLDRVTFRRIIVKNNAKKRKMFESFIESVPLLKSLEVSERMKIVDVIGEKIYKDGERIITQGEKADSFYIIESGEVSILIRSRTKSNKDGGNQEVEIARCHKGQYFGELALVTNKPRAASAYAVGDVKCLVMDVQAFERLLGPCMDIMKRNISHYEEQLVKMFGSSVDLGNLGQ

**Q.** “PI3Kγ mimetic peptide (PI3Kγ MP) (from UniProt P48736 126-150)” was tested. Which Kd did it give?
**A.** 7.5 µM
